# Assay results published in US20210246166A1 (Bayer, published 2021).
# Numbered stars: 1 amine (or outer) side, 2 acyl side, 3 side chain; on linkers, the order of the positions; unused ones are H or OH. Bridge positions count the residues as written; N and C are the ends. Square brackets hold non-standard residues; d marks the D form. Ends that are not written are not given here. Pro(3S,4R-methano) = O=C(O)[C@H]1NC[C@@H]2C[C@@H]21; NH(CH2CH2O)4CH2CO = O=C(COCCOCCOCCOCCN[*:1])[*:2]; Oic = O=C(O)[C@@H]1C[C@@H]2CCCC[C@@H]2N1; PEG8 = NCCOCCOCCOCCOCCOCCOCCOCCOCCC(=O)O; tBuAla = CC(C)(C)C[C@H](N)C(=O)O; Cit = NC(=O)NCCC[C@H](N)C(=O)O; Pen = CC(C)(S)[C@H](N)C(=O)O; NMeC = CN[C@@H](CS)C(=O)O; PEG3 = NCCOCCOCCOCCC(=O)O; Orn = NCCC[C@H](N)C(=O)O; Nva = CCC[C@H](N)C(=O)O; Abu = CC[C@H](N)C(=O)O; PEG2 = NCCOCCOCCC(=O)O; Sar = CNCC(=O)O
# T1: recombinant human MASP1 active protease (amino acids 297-699, C-terminal His Tag) (human, UniProt P48740 297-699)
# T1 sequence: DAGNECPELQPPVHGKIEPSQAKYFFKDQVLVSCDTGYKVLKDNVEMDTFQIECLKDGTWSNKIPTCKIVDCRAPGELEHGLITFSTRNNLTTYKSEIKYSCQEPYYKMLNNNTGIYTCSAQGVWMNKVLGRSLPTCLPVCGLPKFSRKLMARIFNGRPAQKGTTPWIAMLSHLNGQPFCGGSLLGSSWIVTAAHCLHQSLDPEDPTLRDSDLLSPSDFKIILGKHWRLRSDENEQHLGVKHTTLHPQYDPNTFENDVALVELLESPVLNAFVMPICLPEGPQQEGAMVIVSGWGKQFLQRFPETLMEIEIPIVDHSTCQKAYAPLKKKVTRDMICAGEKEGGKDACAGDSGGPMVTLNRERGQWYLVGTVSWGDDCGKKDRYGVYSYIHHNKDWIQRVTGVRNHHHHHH
# Columns and labels:
# [1] = biological target: T1, recombinant human MASP1 active protease …; experiment: cell-based or functional assay
# [2] = biological target: recombinant human MASP2 active protease (amino acids 297-686, C-terminal His Tag) (human, UniProt O00187 297-686); experiment: cell-based or functional assay
# Chain of recombinant human MASP2 active protease (amino acids 297-686, C-terminal His Tag) (O00187 other isoform, or with tags, fused parts or gaps limits assumed): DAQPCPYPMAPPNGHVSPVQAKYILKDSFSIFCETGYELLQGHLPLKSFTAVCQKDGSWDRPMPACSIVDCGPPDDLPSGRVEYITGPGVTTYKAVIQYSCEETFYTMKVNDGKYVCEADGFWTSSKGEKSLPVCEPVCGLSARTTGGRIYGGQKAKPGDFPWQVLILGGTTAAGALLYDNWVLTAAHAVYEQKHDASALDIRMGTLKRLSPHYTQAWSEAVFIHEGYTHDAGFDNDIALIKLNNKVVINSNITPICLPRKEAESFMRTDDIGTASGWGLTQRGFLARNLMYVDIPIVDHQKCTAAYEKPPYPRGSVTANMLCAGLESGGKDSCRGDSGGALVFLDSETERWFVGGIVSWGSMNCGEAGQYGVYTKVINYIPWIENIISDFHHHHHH
human MASP1 IC50 [1] [nM],human MASP2 IC50 [2] [nM],Binder
2.4,170,[Orn]ICSRS[tBuAla]PPI[NMeC]IPD-NH2 (disulfide 3-11; also: HCl salt) [(Orn)-IC+SRS-((tBu)A)-PPI-((N-Me)C)+IPD-NH2 (HCl salt)]
2.2,52,[Sar]ICSRS[tBuAla]PPI[Pen]IP-{PEG8-NH2} (disulfide 3-11) [((N-Me)G)-IC+SRS-((tBu)A)-PPI-(Pen)+IP-(PEG8(28 atoms))-NH2]
2.4,110,KICSRS[tBuAla]PPI[NMeC]I-NH2 (disulfide 3-11; N-terminus assumed; SMILES CC[C@H](C)[C@H](NC(=O)[C@@H]1CSSC[C@H](NC(=O)[C@@H](NC(=O)[C@@H](N)CCCCN)[C@@H](C)CC)C(=O)N[C@@H](CO)C(=O)N[C@@H](CCCNC(=N)N)C(=O)N[C@@H](CO)C(=O)N[C@@H](CC(C)(C)C)C(=O)N2CCC[C@H]2C(=O)N2CCC[C@H]2C(=O)N[C@@H]([C@@H](C)CC)C(=O)N1C)C(N)=O) [KIC+SRS-((tBu)A)-PPI-((N-Me)C)+I-NH2]
2.3,87,[Sar]ICSRSLP[Oic]I[Pen]IP[PEG2]-NH2 (disulfide 3-11; N-terminus assumed; SMILES CC[C@H](C)[C@H](NC(=O)CNC)C(=O)N[C@H]1CSSC(C)(C)[C@@H](C(=O)N[C@H](C(=O)N2CCC[C@H]2C(=O)NCCOCCOCCC(N)=O)[C@@H](C)CC)NC(=O)[C@H]([C@@H](C)CC)NC(=O)[C@@H]2C[C@@H]3CCCC[C@@H]3N2C(=O)[C@@H]2CCCN2C(=O)[C@H](CC(C)C)NC(=O)[C@H](CO)NC(=O)[C@H](CCCNC(=N)N)NC(=O)[C@H](CO)NC1=O) [((N-Me)G)-IC+SRSLP-(Oic)-I-(Pen)+IP-(PEG1(10 atoms))-NH2]
2.2,30,[Sar]ICSRS[tBuAla]PPI[Pen]IP[NH(CH2CH2O)4CH2CO]-NH2 (disulfide 3-11; N-terminus assumed; SMILES CC[C@H](C)[C@H](NC(=O)CNC)C(=O)N[C@H]1CSSC(C)(C)[C@@H](C(=O)N[C@H](C(=O)N2CCC[C@H]2C(=O)NCCOCCOCCOCCOCC(N)=O)[C@@H](C)CC)NC(=O)[C@H]([C@@H](C)CC)NC(=O)[C@@H]2CCCN2C(=O)[C@@H]2CCCN2C(=O)[C@H](CC(C)(C)C)NC(=O)[C@H](CO)NC(=O)[C@H](CCCNC(=N)N)NC(=O)[C@H](CO)NC1=O) [((N-Me)G)-IC+SRS-((tBu)A)-PPI-(Pen)+IP-(PEG4-CH2CO2H (15 atoms))-NH2]
0.93,68,[Sar]ICSRSLP[Oic]I[Pen]IPD[PEG2]-NH2 (disulfide 3-11; N-terminus assumed; SMILES CC[C@H](C)[C@H](NC(=O)CNC)C(=O)N[C@H]1CSSC(C)(C)[C@@H](C(=O)N[C@H](C(=O)N2CCC[C@H]2C(=O)N[C@@H](CC(=O)O)C(=O)NCCOCCOCCC(N)=O)[C@@H](C)CC)NC(=O)[C@H]([C@@H](C)CC)NC(=O)[C@@H]2C[C@@H]3CCCC[C@@H]3N2C(=O)[C@@H]2CCCN2C(=O)[C@H](CC(C)C)NC(=O)[C@H](CO)NC(=O)[C@H](CCCNC(=N)N)NC(=O)[C@H](CO)NC1=O) [((N-Me)G)-IC+SRSLP-(Oic)-I-(Pen)+IPD-(PEG1(10 atoms))-NH2]
2.2,120,[Abu]ICSRS[tBuAla]PPICIPD-NH2 (disulfide 3-11; N-terminus assumed; SMILES CC[C@H](N)C(=O)N[C@H](C(=O)N[C@H]1CSSC[C@@H](C(=O)N[C@H](C(=O)N2CCC[C@H]2C(=O)N[C@@H](CC(=O)O)C(N)=O)[C@@H](C)CC)NC(=O)[C@H]([C@@H](C)CC)NC(=O)[C@@H]2CCCN2C(=O)[C@@H]2CCCN2C(=O)[C@H](CC(C)(C)C)NC(=O)[C@H](CO)NC(=O)[C@H](CCCNC(=N)N)NC(=O)[C@H](CO)NC1=O)[C@@H](C)CC) [(Abu)-IC+SRS-((tBu)A)-PPIC+IPD-NH2]
2.1,20,"[Sar]ICSRSL[Pro(3S,4R-methano)]PI[Pen]IP-NH2 (disulfide 3-11; N-terminus assumed; SMILES CC[C@H](C)[C@H](NC(=O)CNC)C(=O)N[C@H]1CSSC(C)(C)[C@@H](C(=O)N[C@H](C(=O)N2CCC[C@H]2C(N)=O)[C@@H](C)CC)NC(=O)[C@H]([C@@H](C)CC)NC(=O)[C@@H]2CCCN2C(=O)[C@@H]2[C@H]3C[C@H]3CN2C(=O)[C@H](CC(C)C)NC(=O)[C@H](CO)NC(=O)[C@H](CCCNC(=N)N)NC(=O)[C@H](CO)NC1=O) [((N-Me)G)-IC+SRSL-((1S,2S,5R)-3-azabicyclo[3.1.0]hexane-2-carboxylic acid)-PI-(Pen)+IP-NH2]"
2.2,98,LICSRS[tBuAla]PPI[NMeC]I-NH2 (disulfide 3-11; N-terminus assumed; SMILES CC[C@H](C)[C@H](NC(=O)[C@@H]1CSSC[C@H](NC(=O)[C@@H](NC(=O)[C@@H](N)CC(C)C)[C@@H](C)CC)C(=O)N[C@@H](CO)C(=O)N[C@@H](CCCNC(=N)N)C(=O)N[C@@H](CO)C(=O)N[C@@H](CC(C)(C)C)C(=O)N2CCC[C@H]2C(=O)N2CCC[C@H]2C(=O)N[C@@H]([C@@H](C)CC)C(=O)N1C)C(N)=O) [LIC+SRS-((tBu)A)-PPI-((N-Me)C)+I-NH2]
2.2,63,AICSRSLP[Oic]I[Pen]IP-NH2 (disulfide 3-11; N-terminus assumed; SMILES CC[C@H](C)[C@H](NC(=O)[C@H](C)N)C(=O)N[C@H]1CSSC(C)(C)[C@@H](C(=O)N[C@H](C(=O)N2CCC[C@H]2C(N)=O)[C@@H](C)CC)NC(=O)[C@H]([C@@H](C)CC)NC(=O)[C@@H]2C[C@@H]3CCCC[C@@H]3N2C(=O)[C@@H]2CCCN2C(=O)[C@H](CC(C)C)NC(=O)[C@H](CO)NC(=O)[C@H](CCCNC(=N)N)NC(=O)[C@H](CO)NC1=O) [AIC+SRSLP-(Oic)-I-(Pen)+IP-NH2]
2.4,150,[Orn]ICSRS[tBuAla]PPI[NMeC]IPD-NH2 (disulfide 3-11; N-terminus assumed; SMILES CC[C@H](C)[C@H](NC(=O)[C@@H](N)CCCN)C(=O)N[C@H]1CSSC[C@@H](C(=O)N[C@H](C(=O)N2CCC[C@H]2C(=O)N[C@@H](CC(=O)O)C(N)=O)[C@@H](C)CC)N(C)C(=O)[C@H]([C@@H](C)CC)NC(=O)[C@@H]2CCCN2C(=O)[C@@H]2CCCN2C(=O)[C@H](CC(C)(C)C)NC(=O)[C@H](CO)NC(=O)[C@H](CCCNC(=N)N)NC(=O)[C@H](CO)NC1=O) [(Orn)-IC+SRS-((tBu)A)-PPI-((N-Me)C)+IPD-NH2]
2.2,65,[Cit]ICSRS[tBuAla]PPI[Pen]IPD-OH (disulfide 3-11; N-terminus assumed; SMILES CC[C@H](C)[C@H](NC(=O)[C@@H](N)CCCNC(N)=O)C(=O)N[C@H]1CSSC(C)(C)[C@@H](C(=O)N[C@H](C(=O)N2CCC[C@H]2C(=O)N[C@@H](CC(=O)O)C(=O)O)[C@@H](C)CC)NC(=O)[C@H]([C@@H](C)CC)NC(=O)[C@@H]2CCCN2C(=O)[C@@H]2CCCN2C(=O)[C@H](CC(C)(C)C)NC(=O)[C@H](CO)NC(=O)[C@H](CCCNC(=N)N)NC(=O)[C@H](CO)NC1=O) [(Cit)-IC+SRS-((tBu)A)-PPI-(Pen)+IPD-OH]
2.2,51,[Nva]ICSRS[tBuAla]PPI[Pen]IPD-NH2 (disulfide 3-11; N-terminus assumed; SMILES CCC[C@H](N)C(=O)N[C@H](C(=O)N[C@H]1CSSC(C)(C)[C@@H](C(=O)N[C@H](C(=O)N2CCC[C@H]2C(=O)N[C@@H](CC(=O)O)C(N)=O)[C@@H](C)CC)NC(=O)[C@H]([C@@H](C)CC)NC(=O)[C@@H]2CCCN2C(=O)[C@@H]2CCCN2C(=O)[C@H](CC(C)(C)C)NC(=O)[C@H](CO)NC(=O)[C@H](CCCNC(=N)N)NC(=O)[C@H](CO)NC1=O)[C@@H](C)CC) [(Nva)-IC+SRS-((tBu)A)-PPI-(Pen)+IPD-NH2]
2.2,42,[Sar]ICSRS[tBuAla]PPI[Pen]IP[PEG3]-NH2 (disulfide 3-11; N-terminus assumed; SMILES CC[C@H](C)[C@H](NC(=O)CNC)C(=O)N[C@H]1CSSC(C)(C)[C@@H](C(=O)N[C@H](C(=O)N2CCC[C@H]2C(=O)NCCOCCOCCOCCC(N)=O)[C@@H](C)CC)NC(=O)[C@H]([C@@H](C)CC)NC(=O)[C@@H]2CCCN2C(=O)[C@@H]2CCCN2C(=O)[C@H](CC(C)(C)C)NC(=O)[C@H](CO)NC(=O)[C@H](CCCNC(=N)N)NC(=O)[C@H](CO)NC1=O) [((N-Me)G)-IC+SRS-((tBu)A)-PPI-(Pen)+IP-(PEG2(13 atoms))-NH2]
2.2,43,[Sar]ICSRSLP[Oic]I[Pen]IP-NH2 (disulfide 3-11; also: HCl salt) [((N-Me)G)-IC+SRSLP-(Oic)-I-(Pen)+IP-NH2 (HCl salt)]
2.2,70,LICSRS[tBuAla]PPI[Pen]IPD-NH2 (disulfide 3-11; N-terminus assumed; SMILES CC[C@H](C)[C@H](NC(=O)[C@@H](N)CC(C)C)C(=O)N[C@H]1CSSC(C)(C)[C@@H](C(=O)N[C@H](C(=O)N2CCC[C@H]2C(=O)N[C@@H](CC(=O)O)C(N)=O)[C@@H](C)CC)NC(=O)[C@H]([C@@H](C)CC)NC(=O)[C@@H]2CCCN2C(=O)[C@@H]2CCCN2C(=O)[C@H](CC(C)(C)C)NC(=O)[C@H](CO)NC(=O)[C@H](CCCNC(=N)N)NC(=O)[C@H](CO)NC1=O) [LIC+SRS-((tBu)A)-PPI-(Pen)+IPD-NH2]
